Experimental data published in publication PMC11601597 (bioRxiv, 2024).

Assays:
[1] = target: K. pneumoniae OqxB (K. pneumoniae); assay: crystal structure
[2] = target: K. pneumoniae OqxB (K. pneumoniae); assay: cryo-EM structure
cryo-EM structure = target: the molecule itself; assay: cryo-EM structure
crystal structure = target: the molecule itself; assay: crystal structure

## K. pneumoniae OqxB (natural protein)
[1]
  stoichiometry N: 3
[2]
  stoichiometry N: 3

B1: E. coli AcrB V612F (natural protein)
chain: MPNFFIDRPIFAWVIAIIIMLAGGLAILKLPVAQYPTIAPPAVTISASYPGADAKTVQDTVTQVIEQNMNGIDNLMYMSSNSDSTGTVQITLTFESGTDADIAQVQVQNKLQLAMPLLPQEVQQQGVSVEKSSSSFLMVVGVINTDGTMTQEDISDYVAANMKDAISRTSGVGDVQLFGSQYAMRIWMNPNELNKFQLTPVDVITAIKAQNAQVAAGQLGGTPPVKGQQLNASIIAQTRLTSTEEFGKILLKVNQDGSRVLLRDVAKIELGGENYDIIAEFNGQPASGLGIKLATGANALDTAAAIRAELAKMEPFFPSGLKIVYPYDTTPFVKISIHEVVKTLVEAIILVFLVMYLFLQNFRATLIPTIAVPVVLLGTFAVLAAFGFSINTLTMFGMVLAIGLLVDDAIVVVENVERVMAEEGLPPKEATRKSMGQIQGALVGIAMVLSAVFVPMAFFGGSTGAIYRQFSITIVSAMALSVLVALILTPALCATMLKPIAKGDHGEGKKGFFGWFNRMFEKSTHHYTDSVGGILRSTGRYLVLYLIIVVGMAYLFVRLPSSFLPDEDQGVFMTMVQLPAGATQERTQKVLNEVTHYYLTKEKNNVESVFAFNGFGFAGRGQNTGIAFVSLKDWADRPGEENKVEAITMRATRAFSQIKDAMVFAFNLPAIVELGTATGFDFELIDQAGLGHEKLTQARNQLLAEAAKHPDMLTSVRPNGLEDTPQFKIDIDQEKAQALGVSINDINTTLGAAWGGSYVNDFIDRGRVKKVYVMSEAKYRMLPDDIGDWYVRAADGQMVPFSAFSSSRWEYGSPRLERYNGLPSMEILGQAAPGKSTGEAMELMEQLASKLPTGVGYDWTGMSYQERLSGNQAPSLYAISLIVVFLCLAALYESWSIPFSVMLVVPLGVIGALLAATFRGLTNDVYFQVGLLTTIGLSAKNAILIVEFAKDLMDKEGKGLIEATLDAVRMRLRPILMTSLAFILGVMPLVISTGAGSGAQNAVGTGVMGGMVTATVLAIFFVPVFFVVVRRRFSRKNEDIEHSHTVDHH
cryo-EM structure
  stoichiometry N: 3

B2: E. coli AcrB V612N (natural protein)
chain: MPNFFIDRPIFAWVIAIIIMLAGGLAILKLPVAQYPTIAPPAVTISASYPGADAKTVQDTVTQVIEQNMNGIDNLMYMSSNSDSTGTVQITLTFESGTDADIAQVQVQNKLQLAMPLLPQEVQQQGVSVEKSSSSFLMVVGVINTDGTMTQEDISDYVAANMKDAISRTSGVGDVQLFGSQYAMRIWMNPNELNKFQLTPVDVITAIKAQNAQVAAGQLGGTPPVKGQQLNASIIAQTRLTSTEEFGKILLKVNQDGSRVLLRDVAKIELGGENYDIIAEFNGQPASGLGIKLATGANALDTAAAIRAELAKMEPFFPSGLKIVYPYDTTPFVKISIHEVVKTLVEAIILVFLVMYLFLQNFRATLIPTIAVPVVLLGTFAVLAAFGFSINTLTMFGMVLAIGLLVDDAIVVVENVERVMAEEGLPPKEATRKSMGQIQGALVGIAMVLSAVFVPMAFFGGSTGAIYRQFSITIVSAMALSVLVALILTPALCATMLKPIAKGDHGEGKKGFFGWFNRMFEKSTHHYTDSVGGILRSTGRYLVLYLIIVVGMAYLFVRLPSSFLPDEDQGVFMTMVQLPAGATQERTQKVLNEVTHYYLTKEKNNVESVFANNGFGFAGRGQNTGIAFVSLKDWADRPGEENKVEAITMRATRAFSQIKDAMVFAFNLPAIVELGTATGFDFELIDQAGLGHEKLTQARNQLLAEAAKHPDMLTSVRPNGLEDTPQFKIDIDQEKAQALGVSINDINTTLGAAWGGSYVNDFIDRGRVKKVYVMSEAKYRMLPDDIGDWYVRAADGQMVPFSAFSSSRWEYGSPRLERYNGLPSMEILGQAAPGKSTGEAMELMEQLASKLPTGVGYDWTGMSYQERLSGNQAPSLYAISLIVVFLCLAALYESWSIPFSVMLVVPLGVIGALLAATFRGLTNDVYFQVGLLTTIGLSAKNAILIVEFAKDLMDKEGKGLIEATLDAVRMRLRPILMTSLAFILGVMPLVISTGAGSGAQNAVGTGVMGGMVTATVLAIFFVPVFFVVVRRRFSRKNEDIEHSHTVDHH
Crystal structure
  stoichiometry N: 3

B3: E. coli AcrB V612W (natural protein)
chain: MPNFFIDRPIFAWVIAIIIMLAGGLAILKLPVAQYPTIAPPAVTISASYPGADAKTVQDTVTQVIEQNMNGIDNLMYMSSNSDSTGTVQITLTFESGTDADIAQVQVQNKLQLAMPLLPQEVQQQGVSVEKSSSSFLMVVGVINTDGTMTQEDISDYVAANMKDAISRTSGVGDVQLFGSQYAMRIWMNPNELNKFQLTPVDVITAIKAQNAQVAAGQLGGTPPVKGQQLNASIIAQTRLTSTEEFGKILLKVNQDGSRVLLRDVAKIELGGENYDIIAEFNGQPASGLGIKLATGANALDTAAAIRAELAKMEPFFPSGLKIVYPYDTTPFVKISIHEVVKTLVEAIILVFLVMYLFLQNFRATLIPTIAVPVVLLGTFAVLAAFGFSINTLTMFGMVLAIGLLVDDAIVVVENVERVMAEEGLPPKEATRKSMGQIQGALVGIAMVLSAVFVPMAFFGGSTGAIYRQFSITIVSAMALSVLVALILTPALCATMLKPIAKGDHGEGKKGFFGWFNRMFEKSTHHYTDSVGGILRSTGRYLVLYLIIVVGMAYLFVRLPSSFLPDEDQGVFMTMVQLPAGATQERTQKVLNEVTHYYLTKEKNNVESVFAWNGFGFAGRGQNTGIAFVSLKDWADRPGEENKVEAITMRATRAFSQIKDAMVFAFNLPAIVELGTATGFDFELIDQAGLGHEKLTQARNQLLAEAAKHPDMLTSVRPNGLEDTPQFKIDIDQEKAQALGVSINDINTTLGAAWGGSYVNDFIDRGRVKKVYVMSEAKYRMLPDDIGDWYVRAADGQMVPFSAFSSSRWEYGSPRLERYNGLPSMEILGQAAPGKSTGEAMELMEQLASKLPTGVGYDWTGMSYQERLSGNQAPSLYAISLIVVFLCLAALYESWSIPFSVMLVVPLGVIGALLAATFRGLTNDVYFQVGLLTTIGLSAKNAILIVEFAKDLMDKEGKGLIEATLDAVRMRLRPILMTSLAFILGVMPLVISTGAGSGAQNAVGTGVMGGMVTATVLAIFFVPVFFVVVRRRFSRKNEDIEHSHTVDHH
cryo-EM structure
  stoichiometry N: 3
